From patent US20170096487A1 (VENTANA MEDICAL SYSTEMS, published 2017)

What was measured:
HER4 = biological target: T1, HER4 (UniProt Q15303 26-1308, limits assumed); test: IHC on FFPE transfected HEK293 cells, Ventana Benchmark XT
T1 construct: whole, on cells
Protocol: (§1) The suitability of the newly developed HER3 monoclonal antibodies MAK<humanHER3> M-7.2.42 and MAK<humanHER3> M-7.3.8 was shown using FFPE cell line controls. Therefore HER1, HER2, HER3 or HER4 transfected or untransfected HEK293 cells, respectively, were fixed with 4% PBS buffered formaldehyde and were subsequently embedded in paraffin.
(§2) All staining procedures were performed on the Ventana Benchmark XT automated IHC stainer using Ventana buffers and reagents, i.e., amongst others, the standard cell conditioning 1 (CC1) reagent for sample preparation and ultraView DAB as detection system.
(§3) As obvious from FIG. 3 the newly developed HER3 monoclonal antibodies MAK<humanHER3> M-7.2.42 and MAK<humanHER3> M-7.3.8 show specific membrane staining only on HER3 transfected cells. HER1, HER2 and HER4-transfected cells and control cells are negative. HER3 monoclonal antibodies MAK<humanHER3> M-7.2.42 and MAK<humanHER3> M-7.3.8 show good IHC-staining with HER3 transfected cells if used according to standard protocols on the Ventana Benchmark XT analyzer (see FIG. 3, HER3 captioned cell staining).

HER2 = biological target: T2, HER2 (UniProt P04626 23-1255, limits assumed); test: as above
T2 construct: whole, on cells
Protocol: as §1, §2, §3

HER1 [1] = biological target: T3, HER1 (UniProt P00533 25-1210, limits assumed); test: Western blot on lysates of transfected HEK293 cells, RT and 37 C
T3 construct: whole, on cells; also called EGFR
Protocol: Lysates were prepared from several HEK293 control cell lines. The cells were transiently transfected with plasmids coding for HER1, HER2, HER3 or HER4. HEK293 cells transfected with the mammalian expression vector pRK5 were used as negative control. For western blotting 10 μg protein lysates were loaded per lane on 4-12% NuPage SDS gels (Invitrogen). Western blotting was performed according to standard protocols with standard NuPage buffers and reagents (Invitrogen). After blocking the membrane was incubated with MAK<humanHER3> M-7.2.42, MAK<humanHER3> M-7.3.8 or the HER3 monoclonal antibody DAK-H3-IC from Dako. MAK<humanHER3> M-7.2.42 and MAK<humanHER3> M-7.3.8 were used at a concentration of lng/ml. Primary antibody incubation was performed for 60 min at RT and at 37° C. HRP-conjugated anti-mouse Fab was used as secondary antibody. The dilution of DAK-H3-IC antibody was made as recommended by its manufacturer and the choice of secondary (detection) antibody was adapted as required. The membrane was developed with ECL (Amersham) and exposed to an x-ray film.

[2] = biological target: T4, biotinylated HER3 peptide (screening peptide with a sequence corresponding to the immunogen); test: Biacore A100 SPR, antibody captured from hybridoma supernatant on anti-mouse Fc, streptavidin-grafted biotinylated HER3 peptide as analyte, 25 C
T4 construct: Synthetic peptide of HER3; also called HER3 antigen peptide; peptide-graft
Protocol: For selection of suitable antibodies, a kinetic screening was performed on hybridoma culture supernatants. The measurements were done using Biacore SPR technology. The CM5 series S sensor chip was mounted into an A100 instrument (GE Healthcare, Biacore) and was hydrodynamically addressed in HBSN buffer (10 mM HEPES pH 7.4, 150 mM NaCl) according to the manufacturer's instructions. The system buffer was HBS-ET (10 mM HEPES pH 7.4, 150 mM NaCl, 0.05% TWEEN 20). The sample buffer was the system buffer supplemented with 1 mg/ml CMD (Carboxymethyldextrane, Sigma #86524). The system was driven at 25° C.
10000 RU RAMIgGFC (relative units of rabbit-anti-mouse F(c)gamma-fragment of the respective mouse immunoglobulin G subclass/Jackson Laboratories) were immobilized according to the manufacturer's instructions using EDC/NHS chemistry on the flow cells FC1 (anti-mouse F(c)gamma of subclass 1), FC2, FC3 and FC4, respectively, on the sensitive spots 1, 2, 4 and 5 on each flow cell. The spots were deactivated using 1M ethanolamine.
The binding activity of antibodies against the HER3 peptide was kinetically tested. Antibodies were captured by a 1 min injection at 10 μl/min of crude hybridoma supernatants diluted 1:3 in sample buffer. Biotinylated Her-3 peptides were carefully singly grafted on streptavidin to enlarge the molecular weight of the complexes and to increase the mass sensitivity of the system. Since the antigen complex dissociation kd is independent of the analyte injection concentration, this is a legal method to increase the sensitivity of the system.

HER1 [3] = biological target: T3, HER1; test: IHC on FFPE transfected HEK293 cells, Ventana Benchmark XT
Protocol: as §1, §2, §3

T1 sequence (Q15303 26-1308 limits assumed): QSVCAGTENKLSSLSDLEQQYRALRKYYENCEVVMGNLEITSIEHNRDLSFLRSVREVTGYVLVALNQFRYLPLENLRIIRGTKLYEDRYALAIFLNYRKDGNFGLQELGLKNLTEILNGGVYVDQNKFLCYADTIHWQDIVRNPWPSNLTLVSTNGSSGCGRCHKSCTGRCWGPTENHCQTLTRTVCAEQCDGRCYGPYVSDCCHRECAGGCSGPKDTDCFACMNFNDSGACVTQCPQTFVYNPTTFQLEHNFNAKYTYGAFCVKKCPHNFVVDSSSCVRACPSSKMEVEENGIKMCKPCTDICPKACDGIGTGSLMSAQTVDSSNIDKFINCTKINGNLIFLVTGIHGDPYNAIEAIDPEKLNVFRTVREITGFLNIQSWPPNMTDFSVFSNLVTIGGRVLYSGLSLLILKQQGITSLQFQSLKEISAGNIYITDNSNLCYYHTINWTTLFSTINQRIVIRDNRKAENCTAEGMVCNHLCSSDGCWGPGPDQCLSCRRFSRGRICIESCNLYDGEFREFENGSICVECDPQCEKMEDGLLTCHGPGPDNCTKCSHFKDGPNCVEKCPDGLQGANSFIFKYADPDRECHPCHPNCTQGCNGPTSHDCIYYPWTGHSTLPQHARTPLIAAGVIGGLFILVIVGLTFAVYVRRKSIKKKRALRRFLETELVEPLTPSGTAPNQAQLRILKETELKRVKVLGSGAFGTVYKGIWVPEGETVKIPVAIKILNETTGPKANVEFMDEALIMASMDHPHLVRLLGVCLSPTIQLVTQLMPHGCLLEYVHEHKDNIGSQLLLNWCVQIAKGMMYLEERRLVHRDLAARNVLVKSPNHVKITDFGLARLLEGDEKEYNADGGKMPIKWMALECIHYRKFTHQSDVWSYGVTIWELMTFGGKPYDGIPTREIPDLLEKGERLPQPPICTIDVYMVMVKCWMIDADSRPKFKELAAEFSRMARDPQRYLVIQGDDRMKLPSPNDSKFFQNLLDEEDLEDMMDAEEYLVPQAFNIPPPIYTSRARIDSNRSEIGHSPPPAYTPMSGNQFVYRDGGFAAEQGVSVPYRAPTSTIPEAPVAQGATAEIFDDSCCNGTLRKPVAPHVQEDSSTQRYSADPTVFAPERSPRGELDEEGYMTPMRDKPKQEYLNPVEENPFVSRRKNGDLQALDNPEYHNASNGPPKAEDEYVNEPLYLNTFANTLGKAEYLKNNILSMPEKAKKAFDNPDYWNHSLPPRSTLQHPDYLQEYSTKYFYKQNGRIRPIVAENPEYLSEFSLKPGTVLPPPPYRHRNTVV

| binding result (HER4) | binding result (HER2) | koff [2] | t½ diss [2] | binding result (HER1 [3]) | Binder | binding result (HER1 [1]) |
| --- | --- | --- | --- | --- | --- | --- |
| no binding | no binding | 4.26e-05 s⁻¹ | 4.52 h | – | MAK<humanHER3> M-7.2.42 (antibody, V domains shown, Tested as crude hybridoma supernatant in the Biacore screening; also called HER3 monoclonal antibody MAK<humanHER3> M-7.2.42) VH: EVQLLQSGPELVKPGASVKMSCKASGYTFTDYNLHWVKQSHGRTLEWIGYFNPYNGGTFYTQKFKDKATLTINKSSSTAYMELRSLTSEDSAVYYCTRRYFDGSSYFDYWGQGTTLTVSS VL: DVLMTQTPLSLPVSLGDQASISCRSSQTIVHSNGNTYLEWYVQKPGQSLKLLIYKVSNRFSGVPDRFSGSGSGTDFTLKISRVEAEDLGVYYCFQGSHVPRAFGGGTKLEIKR | no binding (tested: lng/ml (so in the source)) |
| no binding | no binding | 2.66e-05 s⁻¹ | 7.25 h | no binding | MAK<humanHER3> M-7.3.8 (antibody, V domains shown, Tested as crude hybridoma supernatant in the Biacore screening; also called antibody 7.3.8; HER3 monoclonal antibody MAK<humanHER3> M-7.3.8) VH: EVQLQQSGPELAKPGASVKMSCKASGYTFTDYNLHWVKQSHGKTLEWIGYFNTYNGGIFYTQKFKDKATLTINKSSSTAYMELRSLTSEDSAVYYCTRRYFDGSSYFDYWGRGTTLTVSS VL: DVLMTQIPLSLPVSLGDQASISCRSSQSIVHSNGNTYLEWYVQKPGQSPKLLIYKVSNRFSGVPDRFSGSGSGTDFTLKISRVEAEDLGVYYCFQGSHAPRTFGGGTKLEIKR | – |
